The assay concerns the target PKM2 (pyruvate kinase M, isoform M2) (human (endogenous in HUVECs)) (UniProt P14618). In words: native gel or EMSA. On the technique in general: In EMSA bound probe runs differently from free probe, usually more slowly.

Sequence of PKM2 (pyruvate kinase M, isoform M2), P14618 1-531 (enzyme; other documents disagree on this pair) (P14618 whole entry, canonical isoform): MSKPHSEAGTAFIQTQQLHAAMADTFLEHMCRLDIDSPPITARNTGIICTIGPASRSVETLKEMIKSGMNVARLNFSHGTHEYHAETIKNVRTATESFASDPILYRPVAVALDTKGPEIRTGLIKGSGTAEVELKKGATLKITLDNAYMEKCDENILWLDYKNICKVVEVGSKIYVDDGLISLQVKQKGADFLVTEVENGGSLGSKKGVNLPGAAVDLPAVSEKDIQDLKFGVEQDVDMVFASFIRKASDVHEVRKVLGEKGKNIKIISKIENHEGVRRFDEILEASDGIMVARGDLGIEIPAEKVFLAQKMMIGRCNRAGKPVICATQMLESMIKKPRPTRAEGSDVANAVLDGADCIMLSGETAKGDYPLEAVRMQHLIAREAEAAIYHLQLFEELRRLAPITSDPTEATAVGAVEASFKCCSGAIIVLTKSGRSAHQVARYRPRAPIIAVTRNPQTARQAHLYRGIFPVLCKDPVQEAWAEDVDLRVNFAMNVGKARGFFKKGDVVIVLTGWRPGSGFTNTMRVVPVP

In general, stoichiometry N refers to the number of molecules, sites or subunits per partner or assembly. In the case of “PKM2 (pyruvate kinase M, isoform M2), P14618 1-531 (enzyme; other documents disagree on this pair)”, the stoichiometry N stood at 2.

For the origin of these results see article PMC11121179.
